Measurements reported in paper PMC5461540, “MOB1 Mediated Phospho-recognition in the Core Mammalian Hippo Pathway * ^([image sbox.jpg])” (Molecular & Cellular Proteomics : MCP, 2017).
Where no end group is shown, it is not given here.

Target: T1, MOB1A wild-type (human, UniProt Q9H8S9-1 2-216)
T1 construct: also called MOB1A WT; full-length nonphosphorylated human MOB1A; source: E. coli BL21 (DE3) CodonPlus RIL, purified (glutathione-Sepharose, TEV cleavage, subtractive IMAC, SEC); not shown: His6, N-terminal, cleaved; GST, N-terminal, cleaved
T1 sequence (looked up): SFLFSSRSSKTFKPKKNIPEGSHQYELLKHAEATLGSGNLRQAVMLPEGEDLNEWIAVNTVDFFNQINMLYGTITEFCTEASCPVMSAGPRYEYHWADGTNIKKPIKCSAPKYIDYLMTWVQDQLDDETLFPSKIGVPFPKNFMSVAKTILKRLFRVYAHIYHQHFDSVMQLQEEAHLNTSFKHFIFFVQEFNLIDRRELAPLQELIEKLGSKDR
Assay: crystal structure; MOB1A mixed with MST1 phosphopeptide at 1:1.5 mole ratio; hanging drops, 0.1 M MES pH 6.0, 0.2 M LiCl, 20% PEG 6000
Conditions: both partners purified

B1: MST1 pT353 phosphopeptide (15-mer, crystallization) (peptide)
peptide: VASTMTDGANTMIEH
modifications: also: phosphothreonine at 353 (place in peptide not given here)
notes: MST1 (STK4), human, 15-mer encompassing pT353; also called MST1-pT353 peptide; source: synthetic peptide, bought: Biomatik
binding result: binds

B2: MST1 pT367 phosphopeptide (15-mer, crystallization) (peptide)
peptide: DDTLPSQLGTMVINA
modifications: also: phosphothreonine at 367 (place in peptide not given here)
notes: MST1 (STK4), human, 15-mer encompassing pT367; also called MST1-pT367 peptide; source: synthetic peptide, bought: Biomatik
binding result: binds
